Molecular target: Keap1 labeled with Cy3 (UniProt Q14145)
Assay: MST

UniProt Q14145, sequence (Q14145 whole entry): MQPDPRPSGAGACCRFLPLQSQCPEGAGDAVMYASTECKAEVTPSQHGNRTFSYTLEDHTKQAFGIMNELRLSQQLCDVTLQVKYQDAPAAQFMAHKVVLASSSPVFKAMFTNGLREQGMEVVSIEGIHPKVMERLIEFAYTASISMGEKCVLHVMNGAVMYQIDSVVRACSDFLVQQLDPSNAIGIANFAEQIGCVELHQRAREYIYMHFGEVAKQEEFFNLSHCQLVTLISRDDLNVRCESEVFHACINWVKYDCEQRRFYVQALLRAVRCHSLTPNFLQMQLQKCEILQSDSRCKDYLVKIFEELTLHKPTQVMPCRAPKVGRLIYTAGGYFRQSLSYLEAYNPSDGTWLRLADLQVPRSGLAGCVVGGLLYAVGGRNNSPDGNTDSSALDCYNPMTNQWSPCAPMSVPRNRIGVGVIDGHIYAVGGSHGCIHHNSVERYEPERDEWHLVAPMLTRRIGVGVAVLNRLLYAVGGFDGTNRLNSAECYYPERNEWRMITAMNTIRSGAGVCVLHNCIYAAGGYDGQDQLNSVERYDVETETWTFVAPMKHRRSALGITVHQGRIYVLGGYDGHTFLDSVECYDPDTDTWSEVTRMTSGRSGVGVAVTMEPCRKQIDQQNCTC

Substance | Kd [nM]
MNT0, control modular nanotransporter lacking the antiKeap1 monobody fragment | 93
free translocation domain of diphtheria toxin, DTox (from UniProt P00588 33-567) (domain or fragment) | > 1000

Reference: PMC10748074
